Experimental data: article PMC3934934, “The Self-Interaction of a Nodavirus Replicase Is Enhanced by Mitochondrial Membrane Lipids” (PLoS ONE, 2014)

Assays:
[1] = target: the molecule itself; assay: cross-linking; MBP-tagged protein in cross-linking buffer (10 mM HEPES pH 7.4, 50 mM MgCl2, 1 mM DTT, 1% glycerol, 0.03% glutaraldehyde), then 10% SDS-PAGE
[2] = target: T1, MBP-protA fragment aa 481–659 (Wuhan nodavirus (WhNV), UniProt Q3KSM3 481-659); assay: pull-down; MBP fusion protein (1 µM) held on amylose resin, His-tagged protein (1 µM) in vitro translated in rabbit reticulocyte lysate; room temperature, 4 hrs; no lipids; Western blot with anti-His; signals given as % of FL to FL protein A self-interaction; conditions: one partner purified
T1 construct: source: E. coli strain TB1, purified (amylose resin); not shown: MBP, N-terminal, kept
T1 sequence: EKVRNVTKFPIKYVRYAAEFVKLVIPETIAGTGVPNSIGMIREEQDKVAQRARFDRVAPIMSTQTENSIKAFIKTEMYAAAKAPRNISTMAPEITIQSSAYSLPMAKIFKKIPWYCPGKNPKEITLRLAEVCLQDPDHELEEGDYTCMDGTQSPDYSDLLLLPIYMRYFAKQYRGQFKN

[3] = target: T2, MBP-protA fragment aa 255–480 (Wuhan nodavirus (WhNV), UniProt Q3KSM3 255-480); assay: as above; conditions: one partner purified
T2 construct: source: E. coli strain TB1, purified (amylose resin); not shown: MBP, N-terminal, kept
T2 sequence: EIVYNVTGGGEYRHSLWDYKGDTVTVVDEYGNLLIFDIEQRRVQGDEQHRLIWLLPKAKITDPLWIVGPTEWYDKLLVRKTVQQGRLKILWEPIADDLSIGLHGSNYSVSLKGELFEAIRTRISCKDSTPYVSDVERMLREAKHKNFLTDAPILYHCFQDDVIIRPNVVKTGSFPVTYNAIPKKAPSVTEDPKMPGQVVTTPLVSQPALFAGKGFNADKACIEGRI

[4] = target: T3, MBP-protA fragment aa 1–254 (Wuhan nodavirus (WhNV), UniProt Q3KSM3 1-254); assay: as above; conditions: one partner purified
T3 construct: also called 1–254 MBP/protA; source: E. coli strain TB1, purified (amylose resin); not shown: MBP, N-terminal, kept
T3 sequence: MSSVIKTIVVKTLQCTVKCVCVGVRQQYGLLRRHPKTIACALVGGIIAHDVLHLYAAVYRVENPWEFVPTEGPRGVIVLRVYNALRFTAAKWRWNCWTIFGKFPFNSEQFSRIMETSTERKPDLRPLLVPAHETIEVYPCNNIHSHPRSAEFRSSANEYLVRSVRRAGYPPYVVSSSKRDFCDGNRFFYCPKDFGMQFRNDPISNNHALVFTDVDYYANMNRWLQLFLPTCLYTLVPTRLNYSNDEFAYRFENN

B1: MBP-tagged full-length (FL) WhNV protein A (natural protein)
chain: MSSVIKTIVVKTLQCTVKCVCVGVRQQYGLLRRHPKTIACALVGGIIAHDVLHLYAAVYRVENPWEFVPTEGPRGVIVLRVYNALRFTAAKWRWNCWTIFGKFPFNSEQFSRIMETSTERKPDLRPLLVPAHETIEVYPCNNIHSHPRSAEFRSSANEYLVRSVRRAGYPPYVVSSSKRDFCDGNRFFYCPKDFGMQFRNDPISNNHALVFTDVDYYANMNRWLQLFLPTCLYTLVPTRLNYSNDEFAYRFENNEIVYNVTGGGEYRHSLWDYKGDTVTVVDEYGNLLIFDIEQRRVQGDEQHRLIWLLPKAKITDPLWIVGPTEWYDKLLVRKTVQQGRLKILWEPIADDLSIGLHGSNYSVSLKGELFEAIRTRISCKDSTPYVSDVERMLREAKHKNFLTDAPILYHCFQDDVIIRPNVVKTGSFPVTYNAIPKKAPSVTEDPKMPGQVVTTPLVSQPALFAGKGFNADKACIEGRIEKVRNVTKFPIKYVRYAAEFVKLVIPETIAGTGVPNSIGMIREEQDKVAQRARFDRVAPIMSTQTENSIKAFIKTEMYAAAKAPRNISTMAPEITIQSSAYSLPMAKIFKKIPWYCPGKNPKEITLRLAEVCLQDPDHELEEGDYTCMDGTQSPDYSDLLLLPIYMRYFAKQYRGQFKNLYNQIYKQRATTSSGVPYNPEMTIRSGSSITTHAGTLNNAFNIYAALRDMGYDETTAWDKVGAVFGDDSLNANHQGEFHSYIEHVTKVLGMRYKSNLRERGQPVLFLGRYFVDPITSYDSFADPMRTIGKLHATANKNVSVEQGAANKAHGYITTDSKTPIIGAWARRVLEITKKKFKNGTGEEQYRCSNAWPQKDEAAIRAAMAAVLEVDEAQLIAQNEAVLKVNSLDQFPVVFDTYYDHKQLAEVDGQLVGTDLHIKEEDERQPETSIDSVPSTGPPPSNGDPNAGGKPTDGPSKGKRKVKGRRPRTAGDPATLRLTDAGSSRRVKPPRKLRPEAKRGGRPIETLVFKNSSLS
notes: also called MBP-protA; 1–1014 MBP/protA; source: E. coli strain TB1, purified (amylose resin); not shown: MBP, N-terminal, kept
[1]
  stoichiometry N: 2

B2: His-protA fragment aa 481–659, in vitro translated (domain or fragment)
chain: T1 sequence
notes: source: in vitro translated in nuclease-treated rabbit reticulocyte lysates
[2]
  homotypic interaction, % of FL to FL protein A self-interaction: 2%

B3: His-protA fragment aa 255–480, in vitro translated (domain or fragment)
chain: T2 sequence
notes: as for B2
[3]
  homotypic interaction, % of FL to FL protein A self-interaction: 55%

B4: His-protA fragment aa 1–254, in vitro translated (domain or fragment)
chain: T3 sequence
notes: also called 1–254 His/protA; wt protein A fragment aa 1–254; source: in vitro translated in nuclease-treated rabbit reticulocyte lysates
[4]
  homotypic interaction, % of FL to FL protein A self-interaction: 73%
